{
  "source": "patent US20240390512A1",
  "about": "“METHODS OF TREATING CHEMOTHERAPY-RESISTANT CANCER WITH AN ANTIBODY-DRUG CONJUGATE” (DAIICHI SANKYO COMPANY, LIMITED, priority 2021, published 2024)",
  "data": [
    {"system": "cynomolgus monkey CDH6", "sequence (as listed by the source)": "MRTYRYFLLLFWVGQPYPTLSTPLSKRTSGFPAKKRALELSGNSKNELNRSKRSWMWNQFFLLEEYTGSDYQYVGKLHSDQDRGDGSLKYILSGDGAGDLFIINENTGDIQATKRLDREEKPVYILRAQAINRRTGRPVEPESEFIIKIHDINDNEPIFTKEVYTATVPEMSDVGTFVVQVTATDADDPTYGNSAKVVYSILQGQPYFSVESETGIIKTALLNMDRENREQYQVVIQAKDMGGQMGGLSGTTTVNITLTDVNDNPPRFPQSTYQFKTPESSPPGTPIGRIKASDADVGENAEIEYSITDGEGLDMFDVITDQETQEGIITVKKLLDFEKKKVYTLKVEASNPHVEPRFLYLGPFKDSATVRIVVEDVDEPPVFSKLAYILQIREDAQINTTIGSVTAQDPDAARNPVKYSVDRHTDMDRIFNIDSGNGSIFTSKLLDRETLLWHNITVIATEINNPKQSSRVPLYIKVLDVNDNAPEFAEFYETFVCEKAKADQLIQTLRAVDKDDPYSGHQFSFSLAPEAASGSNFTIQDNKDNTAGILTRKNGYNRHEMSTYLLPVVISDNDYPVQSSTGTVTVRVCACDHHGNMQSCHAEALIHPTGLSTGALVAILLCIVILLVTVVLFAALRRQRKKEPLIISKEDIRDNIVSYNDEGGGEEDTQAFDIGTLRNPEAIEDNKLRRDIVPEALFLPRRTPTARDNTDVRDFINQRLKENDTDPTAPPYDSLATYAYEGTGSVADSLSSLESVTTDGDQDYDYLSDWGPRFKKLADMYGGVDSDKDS", "experiment": "Hybridoma screening by Cell-ELISA and flow cytometry", "type": "binding", "settings": "hybridoma culture supernatant; cells transfected with pcDNA3.1-cynoCDH6", "protocol": "293α cells (a stable expression cell line derived from HEK293 cells expressing integrin αv and integrin β3) were prepared at 5×10^5 cells/mL in DMEM medium supplemented with 10% FBS. In accordance with transduction procedures for using Lipofectamine 2000 (Thermo Fisher Scientific Inc.), DNA of pcDNA3.1-hCDH6 or pcDNA3.1-cynoCDH6, or pcDNA3.1 as a negative control was introduced into the 293α cells, and the cells were dispensed in an amount of 100 μL/well onto a 96-well plate (Corning Inc.). Thereafter, the cells were cultured under conditions of 37° C. and 5% CO2 in DMEM medium supplemented with 10% FBS for 24 to 27 hours. The obtained transfected cells were used for Cell-ELISA in an adhesive state.\nThe culture supernatant of the 293α cells transfected with the expression vector prepared in Reference Example 1)-4-1 was removed, and the culture supernatant from each hybridoma was then added to the 293α cells transfected with pcDNA3.1-hCDH6 or pcDNA3.1-cynoCDH6, or pcDNA3.1. The cells were left standing at 4° C. for 1 hour. The cells in the wells were washed once with PBS (+) supplemented with 5% FBS, and thereafter, Anti-Rat IgG-Peroxidase antibody produced in rabbit (Sigma-Aldrich Co. LLC) that had been 500-fold diluted with PBS (+) supplemented with 5% FBS was added to the wells. The cells were left standing at 4° C. for 1 hour. The cells in the wells were washed three times with PBS (+) supplemented with 5% FBS, and thereafter, OPD coloring solution (which had been prepared by dissolving o-phenylenediamine dihydrochloride (Wako Pure Chemical Industries, Ltd.) and H2O2 in an OPD solution (0.05 M trisodium citrate, 0.1 M disodium hydrogen phosphate 12-water; pH 4.5), so that the substances became 0.4 mg/ml and 0.6% (v/v), respectively, was added in an amount of 100 μL/well to the wells. A coloring reaction was carried out with occasional stirring. Thereafter, 1 M HCl was added to the plate (100 μL/well) to terminate the coloring reaction, followed by measurement of the absorbance at 490 nm using a plate reader (ENVISION: PerkinElmer, Inc.).\n293T cells were seeded in a 225-cm^2 flask (Sumitomo Bakelite Co., Ltd.) at 5×10^4 cells/cm^2, and the cells were then cultured overnight under conditions of 37° C. and 5% CO2 in DMEM medium supplemented with 10% FBS. pcDNA3.1-cynoCDH6 or pcDNA3.1 as a negative control was introduced into the 293T cells using Lipofectamine 2000, and the cells were further cultured overnight under conditions of 37° C. and 5% CO2. […]\nThe binding specificity to cynomolgus monkey CDH6 of an antibody produced from the human CDH6- and cynomolgus monkey CDH6-binding antibody-producing hybridomas that had been selected by Cell-ELISA in Reference Example 1)-4 was further confirmed by flow cytometry. […] The data was analyzed using FlowJo (Tree Star, Inc.). […]", "values": [
      {"molecule": "rG019: rat anti-human CDH6 monoclonal antibody produced by hybridoma rG019; variable regions SEQ ID NO: 10 and 15 (antibody, listed as Rattus norvegicus, V domains shown) VL: DIQMTQSPSLLSASVGDRVTLNCKASQNIYKNLAWYQQKLGEGPKLLIYDANTLQTGIPSRFSGSGSGSDFTLTISSLQPEDVATYFCQQYYSGWAFGGVTNLELKRA VH: QVQLQQSGAELVKPGSSVKISCKASGYTFTRNFMHWIKQQPGNGLEWIGWIYCGDGETEYNQKFNGKATLTADRSSSTAYMELSRLTSEDSAVYFCARGVYGGFAGGYFDFWGQGVMVTVSS", "binding to monkey CDH6": "bind specifically and strongly"},
      {"molecule": "rG055: rat anti-human CDH6 monoclonal antibody produced by hybridoma rG055; variable regions SEQ ID NO: 20 and 25 (antibody, listed as Rattus norvegicus, V domains shown) VL: DVQMTHSPSYLAASPGESVSISCKTSKNISNYLVWYQQKPGEAYKLLIYSGSTLQSGTPSRFSGSGSGTDFTLTIRSLEPEDFGLYFCQQYYEKPFTFGSGTKLEIKRA VH: EVQLQESGPGLVRPSQSLSLSCSVTDYSITSNYWGWIRRFPGNKMEWMGYITYSGYTSYNPSLQSRISITRDTSKNQFFLQLNSVTAEDTATYYCARSINHGGYSYVVDAWGPGASVTVSS", "binding to monkey CDH6": "bind specifically and strongly"},
      {"molecule": "rG061: rat anti-human CDH6 monoclonal antibody produced by hybridoma rG061; variable regions SEQ ID NO: 40 and 45 (antibody, listed as Rattus norvegicus, V domains shown) VL: DVQMTQSPSYLAASPGESVSISCKATKSISNYLAWYQQKPGEAYKVLIYSGSTLQSGTPSRFSGSGSGTDFTLTIRSLEPEDFGLYSCQQYYEKPLTFGSGTKLEIKRA VH: EVQLQESGPGLVKPSQSLSLTCSVTGYSITTYYWGWIRKFPGNKMEWMGYISYSGRTSYNPSLKSRMSITRDASKNQFFLQLNSVTTDDTATYYCARSPINHGGYWYFDFWGPGTMVTVSS", "binding to monkey CDH6": "bind specifically and strongly"},
      {"molecule": "rG056: rat anti-human CDH6 monoclonal antibody produced by hybridoma rG056; variable regions SEQ ID NO: 30 and 35 (antibody, listed as Rattus norvegicus, V domains shown) VL: DVQMTQSPSSLAASPGESVSISCRATKSIGIYLAWYQQKPGKTFKLLIYSGSTLQSGTPSRFSGSGSGTDFTLTIRSLEPEDFGLYFCQQFYENPFTFGSGTKLEIRRA VH: EVQLQESGPGLVKPSQSLSLTCSVTDYSITTYFWGWIRKFPGNKMEWMGYMSYRGGTSYNPSLKSRISITRDTSKNQFFLQLNSVTTEDTATYYCARCPNYGGHSLVFDYWGQGVMVTVSS", "binding to monkey CDH6": "bind specifically and strongly"}
    ]}
  ]
}
